In patent US6084068 one finds runoff transcription from the AdML promoter by RNA Polymerase II data, which are given here for two substances.

Read-outs that look alike come from different tables or passages of the source.

In experiment [1] the target is RNA Polymerase II (rat).
In experiment [2] the target is RNA Polymerase II (rat). This is another data set of the same source.

As for Elongin A deletion mutant 1-730, the runoff transcription from the AdML promoter by RNA Polymerase II in experiment [1] was above 50%.
Take Elongin A deletion mutant 1-680: the runoff transcription from the AdML promoter by RNA Polymerase II in experiment [2] was 50%.
